The data set in a line: soluble on expression in E. coli; label from the status in PepcDB or PDB records.
Consider “MAQTERRDAPELPDFSLLKRLARDQLIFLLEQLPGKKDLFIDADLMSPLDRIANVTILKQHEVDKLYKVELKPIVSSSDQLCFLIRPRIQTVKWISDLVNSDKVAGRFRRYKIIFTPQKFYACETVLEEQGVYGDVTTDEWNFYILPLDDDILSLELPEFFRDNFLEGDQRWVTTGGGALHLLQSVYGSFSKVYGIGRCAKMVYESWRELMEEGEQRTRQPEFAKVFLIDRDVDFVTPLCSQVVYEGLVDDIFRIKCSSVEFGPDVTSSDKSIKVMLNSQDKVFNEIRNEHFSNVFGFLSQKAKNLQTAYDKRRGMDIQQMKAFVADELKGLKQEHRLLSLHIGASESIMKKKTKQDFQELLKTEHSLLEGFEIRECIAYIEEHINRQVSMIDSLRLLCLLSITENGLLSKDYRSLKAQYLQSYGIEHLLTFANLRQLGLLEEQQTGETLTVMESKVGKLVNDKTAGKLTDAFSSLAKKSNFRALSKRLALVPKSGEEYDLRVPRDMAYIFSGAYIPLSCKLIEQVLERDGWTGLEEVTRMLNGQDFAVTGGSSSSEARNKSNGQRIILVMFLGGCTYSEISALRFLGKERGCRFIVLTTAITNSGRLLEALLDKHV”, for which the “soluble on expression in E. coli” value is recorded as “soluble”.

Turning to “MVVFEITILGANGGPTEYGTQCFILKPARTEDPELIAVDGGAGMYQLREMLVQGRNENEGDDELVPSFYEHDREPIEFFIDSKLNIQKGLSKSLLQSLKRQGEHFESANTMKKTYEVFQGITDYYITHPHLDHISGLVVNSPSIYEQENSKKKTIWGLPHTIDVLQKHVFNDLIWPDLTAERSRKLKLKCLNPKEVQKCTIFPWDVIPFKVHHGIGVKTGAPVYSTFYIFRDRKSKDCIIVCGDVEQDRRESEESLLEEFWSYVAENIPLVHLKGILVECSCPLSSKPEQLYGHLSPIYLINELSNLNTLYNSSKGLSGLNVIVTHVKSTPAKRDPRLTILEELRFLAEERNLGDLRISIALEGHTLFL”, the “soluble on expression in E. coli” value is given as “not soluble”.

Take “MSCTTDKLIQKYDALVRKTTEHKFAKELCAGTLKDRSLYIYLSQDLQFFETSLRLICKTTSLAPTTHALITLAKKIGFFSNDENSYFHDCLELLAPSLTKEERDNFDNKAIPGVDAYINFLDELRKDASITWPSLVTSLWVAEELYWRWARDTPRAPGLHWKYQKWIDLHDGEHFQTWCEFLKAEVDKFPVEEVESIFVKVSQFEFEFFESCYNA”: the “soluble on expression in E. coli” value is recorded as “not soluble”.

For the sequence “GSAMRSAQVYRWQIPMDAGVVLRDRRLKTRDGLYVCLREGEREGWGEISPLPGFSQETWEEAQSVLLAWVNNWLAGDCELPQMPSVAFGVSCALAELTDTLPQAANYRAAPLCNGDPDDLILKLADMPGEKVAKVKVGLYEAVRDGMVVNLLLEAIPDLHLRLDANRAWTPLKGQQFAKYVNPDYRDRIAFLEEPCKTRDDSRAFARETGIAIAWDESLREPDFAFVAEEGVRAVVIKPTLTGSLEKVREQVQAAHALGLTAVISSSIESSLGLTQLARIAAWLTPDTIPGLDTLDLMQAQQVRRWPGSTLPVVEVDALERLL”, the “soluble on expression in E. coli” value is recorded as “soluble”.

Consider “MSLINLKHSFGISRSSHDFYDIVYFYIVDGEIIGRGEAAPSKRYNETTEKIISVLNKGILVPENFEDADQLWEYIKPQLEGISALEAAANMAIWDWRGQKENKAVHDILGFNVSKLPATSYTISIGDMSELDEKIELSNPYSIIKVKLGTPNDDKEIISQIRQRTDKLIRVDANEGWSLDNAKEMSYWLADRNVEFIEQPFKAKMLNETRSLREFSPLPLFADENSLVSSDIPNIVDCFDGINIKLMKCGGLDEALKMIEIAKHFDMQIMLEGHHHHHH”, for which the “soluble on expression in E. coli” value is “not soluble”.

With “MGISPDAASKLYTVKFQPDPIDKKGWSVIDFNNCCTQDGGWYLNMGWGVESLIDNNPGTQWLCRWDVKEPLPYYFVFDMGKEYTLFRFGFANPVAPAAHVWAGTSKAGYVEASIDNENWVKLKDWTSPKIGEPNVNMDVPATQARYIRFVITDTYPTYDGLRVSLGEVYAWGLEHHHHHH”, the “soluble on expression in E. coli” value is on record as “soluble”.

Turning to “MSVSLEQTLGFRIKVTNVLDVVTEGRLYSFNSSNNTLTIQTTKKNQSPQNFKVIKCTFIKHLEVIGDKPSFNSFKKQQIKPSYVNVERVEKLLKESVIASKKKELLRGKGVSAEGQFIFDQIFKTIGDTKWVAKDIIILDDVKVQPPYKVEDIKVLHEGSNQSITLIQRIVERSWEQLEQDDGRKGG”, the “soluble on expression in E. coli” value is listed as “soluble”.

For the sequence “DKELFFINVYDITASKKAERELIESEEKFKQVVELSVDGIIIGTDSGKIVDCNGAACRIFGYDKEEILKLQVIDLFPGDLNIIAHDITSCNKAAGEKTVERINQKKDGTSFPAEVAARRVKLGN”, the “soluble on expression in E. coli” value is reported as “not soluble”.

As for “GPGSMTELVPPEAIRFANGEPLCAYHECYRCFDGRDILFRLVNVEKKQWFFYNDTADTIAHVRAVFYPGSVIRPLQRADMHVIPGPTGVADETCSIEVTLDIQPGFTESFIEGEHKGFHLEFRTETAPTKEVVFEYRRPMVPYDKIYRCFKNGNGLLFRLVDERVRQWFFYNDTRDLMMKVSVTFANSAEVRPLGCTALGAPHADTAPESVVYTLLIAPGCTEPFIEGNPVTYTLEFAAEPVDAPVTPVLEEPVQYLHGSPDVAVIPHQTHVFKCFKEHGNGLLFRVVDDVNTIWAFYNDTPDYVMTANMRYPSTSDIRLAPGVQVIADSEREGGFVAAVEVLPLATVPFLVGSPEQYELAFAATPVAPLTPSPTTSPEPSSPPQLADAADAAATVPPALPVPEEAPVYCNSGPDLTVMPNIDEVYKCFKDYGNGLVFRLVDKVQRRWAFYNDTTDIVALVRVQFSPGAHIQPLGHTVLGCDLESGSVLHELRVNPLETALFVEGDVDIFTTKFVAEEIQT”, the “soluble on expression in E. coli” value is listed as “soluble”.

“MITLTGHTLTIEEMKRLLLEGEGVTACPTSMQKVAECREVVEKIVENGKVVYGITTGFGKFSDVLIQKDDVKALQHNLIQSHACGIGDPFPEEVSRGMLILRANTMLKGVSGVRPLVVNMLLEFVNRKIHPVVPQQGSLGASGDLAPLSHLALILLGEGEVFYKGKRVHAMVALTEEGLEPIELEAKEGLALINGTQAMTAQGVLSYIEAEATAYQAELIASMTIEGLQGIIDAFDENVHKARGYKEQVEVASRIRDILHDSKLTTKQGELRVQDAYSLRCIPQVHGASWQVLNYVKEKLEIEMNAATDNPLIFDGGEKVISGGNFHGQPIAFAMDFLKVGMAELANISERRIERLVNPQLNDLPPFLSPEPGLQSGAMIMQYAAASLVSENKTLAHPASVDSIPSSANQEDHVSMGTIASRHAHQIIQNVRRVLSIEMICAMQAAEYRGIENMSTVTKSFYHQGRQQVPSITNDRIFSTDIENITHWLKTNYSIKERLDVNAAL”: the “soluble on expression in E. coli” value is reported as “not soluble”.

Turning to “RELIHFAHGNGFPSLCYKQLLEQLETRFDCCFIDKIGHDPDYPVGENWHNLVAEIIASIKRQAEQPVIAVGHSLGGVLSLLAAIEQPKLFKAVIMLDSPLIGAFKSSMVRLAKALGIIDRVTPAFRTKKRREHWQNYEQLISYLKTRDLFKTFTEECLNDYIKYGLQYKEDGYYLRFDRHVEYQIYRTIPHVIPRYKGKLIVPAALIYGDKSTVVDRMDIRYMKNHFNVKCFKTMGTHLFPMEHPKAVGKQVIEVIDAII”, the “soluble on expression in E. coli” value is reported as “not soluble”.

Regarding “MLKYEHIAKQLNAFIHQSNFKPGDKLPNVTQLKERYQVSKSTIIKALGLLEQDGLIYQAQGSGIYVRNIADANRINVFKTNGFSKSLGEHRMTSKVLVFKEMATPPKSVQDELQLNADDTVYYLERLRFVDDDVLCIEYSYYHKEIVKYLNDDIAKGSIFDYLESNMKLRIGFSDIFFNVDKLTSSEASLLQLSTGEPCLRYHQTFYTMTGKPFDSSDIVFHYRHAQFYIPSKK”, the “soluble on expression in E. coli” value was “soluble”.

For “MSDKVQTMASAIYRELETMIKVHGEDGVKTLMPLVVNVLEALDLAYLERDEQTAELEMLKEDNEQLQTQYEREKALRKQTEQKYIEIEDTLIGQNKELDKKIESLESIMRMLELKAKNATDHASRLEEREVEQKLEFDRLHERYNTLLRTHVDHMERTKYLMGSEKFELMQNMPLPNMQLRNKMGMAASVDASSIRGVSDLISAHMTQSTTMDVNLANHITNEDWQDEFSSDIEPSPRDIPQSSADALTSPITTKEPTPKREAASPKQSEEEEADETTSVDPKENNDLLGADLTGNLVDPAEFASAVNDTFIGMGREVENLIKENSELLDMKNALNIVKNDLINQVDELNSENMILRDENLSRQMVSEKMQEQITKHEEEIKTLKQKLMEKENEQEEDDVPMAMRKRFTRSEMQRVLMDRNAYKEKLMELEESIKWTEMQRAKKMQQQQQNVNQKKSGGIWEFFSSLLGDSVTPPASSRGNRASSSRGKMTRSVEYIDPDMISERRAAERREQYKLVREHVKKEDGRIEAYGWSLPNVEAEVSSVPIPVCCRPLLDNEPSLKIWCATGVVLRGGRDERGQWIVGDPIYFAPASMKKTKTSNHRPELEDEIKRARNLDARESELDEWQSSSLVWVVSSNQGKSLIAVLDANNPNNIIETFPACDSHLLCIQAVSGVMEGEPEMNEEQSKKYLSGGGKIKDLPEGLDGTDLGACEWVELRKMEDSEDGVPTYCSNDMKPSPKRTRDFSISEVAPVDSSAPVKEDPLPPPANRPGGRAALPPHIRDAMSKYDGVSGQMSGALPTVWMGGQNQYIYIHSAVTAWKQCLRRIKMPDAVLSIVHYKSRIFAALANGTIAIFHRNKHGEWSDEGYHSLRVGSATSSVRSLCLVSTNIWATYKNCVVVLDAESLQIVKVFAAHPRKDSQVRNMQWVGAGVWLSIRLDSTLRLYHAHTYEHLQDVDIEPYVTKMLGTSKLDFSYMRTTALLVSNRRLWIGTGTGVIISVPFSGQLEKKIETKDSKRPAGPGGLVRVYGATSENATNDEKTNDDFIPYCNLAHAQLSFHGHKDSVKFFLGVPGASKNGEDESAEVTLRRMLIMSGGDGYIDFRIGEENEPELTGQSIRPRDMSHLIIWEVDAELPILSK”, the “soluble on expression in E. coli” value is listed as “not soluble”.

“MGSDKIHHHHHHMAATLEAVPSTKTADKKTEISEADAARELVRMAKEQGLSLTGPDGLLKQLTKTVIETALDEEMTEHLGYEKHDSAGKQTANSRNGVRPKTVLTETTGPVEVDVPRDRAGTFEPVIVKKRQRRLTGVDEMVLSLYAKGLTTGEISAHFAEIYGASVSKETVSRITDRVLEEMAAWQNRPLDEVYAAIFIDAIVVKVRDGQVANRPIYAAIGVTLEGEKDILGLWAGTGGEGAKFWMSVLTDIKNRGVKDTFFLVCDGLKGLPEVVTNVWPLATVQTCIIHLIRNTFRLASRQDWDALKRDVKPIYTAPNAEAARTALEELAERWGRKYGAIVRLWENAWEELIPFLDYDVEIRRVICSTNAIESLNARYRRAVKARGHLPTEQAALKCLYLVTRSLDPTGAGKTRWAVRWKPALNAFAITFSDRFPAAESY”: the “soluble on expression in E. coli” value is “not soluble”.

Turning to “GPGSMLSRIKRQQEEAQAATRSGGESAINQPGQKESMAVLRLKNDLDNLDGICSKVVIPDPDNMLRMKVTVRPSRPSIWHGGFFDFLLEFREEYPYEGPRVRYVGPNRVWHPNIEGSEFAEKEGMEKASRKTEWSVCLSFQTDWKPTFSLRDVIIMIELLFQDPNPDDPLHGTSKQAAQMMKDDPVRFRTKARYWMSGHYID”, the “soluble on expression in E. coli” value is “soluble”.

“MSLKAIKNGTILTGTGETIKQGTLLIQDGKVLEVGQRVDTPANAKLIDATGKYVTPGLIDVHTHIGVFSEGLGRTGHDFNETTAAATPYIRAIDGIYPFDQGFEDARQSGVTTVQIMPGSANVIGGEMVTVKTAGTVVDEMIVRAPSGMKAAFGENPKNVHGGKGKLPATRMGVAALFRQQLYQAQDYLKRFEKGELEKRDLGMEQLAKVLRKEIPLRVHAHRADDIATVLRMVDEFDLEATIEHCTEGHLIADHIAKYNVKVSVGPTMTSRTKQELVNKGWHTLIELEKHGIPFSITTDHPVVTINHLVTSAIQAVKAGLSEQSAFQAITLRAAEHIGVEQQVGSLEKGKDGDFVIWSDHPFTATAQVEATYINGKCVTGSHCEGHHHHHH”: the “soluble on expression in E. coli” value is given as “soluble”.

“MNITFKFNFMSYKHYFSPKHKPEITQAITITEPAIIFRLNKTYSTNLSQQEIYDITRSDWILGHRREKAEYGFAAFKGVVLQVYRIDRWDFSGKVTDVGRQRWFFEGKVATEMQDYINGNISHYFKKGDRSPTKYLNCLEHHHHHH”: the “soluble on expression in E. coli” value is listed as “not soluble”.

These data come from the DeepSol protein solubility set.
